For orientation: stoichiometry N means the number of molecules, sites or subunits per partner or assembly.

In this test the target is T1, Mycobacterium tuberculosis GlgE (Mycobacterium tuberculosis), P9WQ17.
T1 chain: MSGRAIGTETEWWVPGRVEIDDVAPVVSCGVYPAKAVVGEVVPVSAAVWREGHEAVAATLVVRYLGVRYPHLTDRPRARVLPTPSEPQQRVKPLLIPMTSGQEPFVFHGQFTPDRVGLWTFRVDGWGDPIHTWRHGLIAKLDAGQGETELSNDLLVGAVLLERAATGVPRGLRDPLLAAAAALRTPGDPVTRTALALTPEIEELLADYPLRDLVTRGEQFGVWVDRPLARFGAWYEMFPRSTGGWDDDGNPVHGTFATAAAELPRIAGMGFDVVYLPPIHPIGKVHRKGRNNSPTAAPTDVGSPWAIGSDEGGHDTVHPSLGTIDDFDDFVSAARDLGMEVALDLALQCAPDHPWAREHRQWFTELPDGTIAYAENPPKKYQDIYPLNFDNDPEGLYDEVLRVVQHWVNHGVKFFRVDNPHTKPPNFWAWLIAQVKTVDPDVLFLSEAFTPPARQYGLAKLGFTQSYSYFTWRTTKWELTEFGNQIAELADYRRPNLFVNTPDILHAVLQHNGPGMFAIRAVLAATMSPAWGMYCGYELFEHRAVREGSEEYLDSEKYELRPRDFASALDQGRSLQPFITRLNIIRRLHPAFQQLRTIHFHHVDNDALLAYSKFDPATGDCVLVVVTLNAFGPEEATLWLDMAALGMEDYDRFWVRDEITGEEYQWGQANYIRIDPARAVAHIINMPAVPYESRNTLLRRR
Briefly: crystal structure; Mtb GlgE co-crystallised with 10 mM maltose (hanging drop, 0.1 M HEPES pH 7.5, 1.0 M ammonium formate), 3.3 Å; the same crystals soaked with 10 mM maltohexaose, 4.0 Å; homodimer seen in the crystal. The note with it: remark: other sources report otherwise.

B1: Mycobacterium tuberculosis GlgE, P9WQ17 1-701 (enzyme)
chain: MSGRAIGTETEWWVPGRVEIDDVAPVVSCGVYPAKAVVGEVVPVSAAVWREGHEAVAATLVVRYLGVRYPHLTDRPRARVLPTPSEPQQRVKPLLIPMTSGQEPFVFHGQFTPDRVGLWTFRVDGWGDPIHTWRHGLIAKLDAGQGETELSNDLLVGAVLLERAATGVPRGLRDPLLAAAAALRTPGDPVTRTALALTPEIEELLADYPLRDLVTRGEQFGVWVDRPLARFGAWYEMFPRSTGGWDDDGNPVHGTFATAAAELPRIAGMGFDVVYLPPIHPIGKVHRKGRNNSPTAAPTDVGSPWAIGSDEGGHDTVHPSLGTIDDFDDFVSAARDLGMEVALDLALQCAPDHPWAREHRQWFTELPDGTIAYAENPPKKYQDIYPLNFDNDPEGLYDEVLRVVQHWVNHGVKFFRVDNPHTKPPNFWAWLIAQVKTVDPDVLFLSEAFTPPARQYGLAKLGFTQSYSYFTWRTTKWELTEFGNQIAELADYRRPNLFVNTPDILHAVLQHNGPGMFAIRAVLAATMSPAWGMYCGYELFEHRAVREGSEEYLDSEKYELRPRDFASALDQGRSLQPFITRLNIIRRLHPAFQQLRTIHFHHVDNDALLAYSKFDPATGDCVLVVVTLNAFGPEEATLWLDMAALGMEDYDRFWVRDEITGEEYQWGQANYIRIDPARAVAHIINMPAVPYESRNTLLRRR
With B1, the stoichiometry N was 2.

For the origin of these results see PMC4526890, “Crystal structures of Mycobacterium tuberculosis GlgE and complexes with non-covalent inhibitors” (Scientific Reports, 2015).
